Data taken from PMC2704394 (2009).

B1: full length S. pombe Pik1, wild type [S. pombe] / purified Cdc4 protein [S. pombe] (parent complex)
chain 1: MPSSNSGNELLLRFFESAHFTSQLCVAYLSRYPNNIGIHHFLCEKLATFPYEEIEFFIPQLIHLVLNKDSESVALEEFIISQCEQNTQCALITFWYLQAHMVDLGLQPHSSCFKICKRLYNRIQILVFMSSSSLIQSQQKISENVTPALILSGIMLGGVCVPELLKKAGPIAIAQGRKAPRQDPDESDVDVLRRLSTEPRYSLDVLRSSLNNSIVEQHSEVSLRLKAPELTRTHSYQSSATLSIDEQRRVLRSNYFQQEIQFLFALQDISIRLIIVPRQARLSSLRAELALLNNNLPADVNIPLLRSYHKEVSHKIVRIDPKEATILNSAERVPYLIMVEVLSGELSFEPQSKKNKAKVQKIVSHKNQRKRWFDLTDVDPYTNLQDSTDNDISESESEGGDLSMSPLIKGLVPDTLSLSKSFSSFGNVSLQVPSSHRDTDVVLLSGRHSDSDGNGALKRSKIYASEITARMRAAATMLSQLDAEGSRRPKAETERIKNSIILDMQRLEEERLNEPSIYPVSVDISCAEDLRFGKETQKAERKGDRDDPSAATFQEDWYAKKERIRKSSPYGHYPNWDLVSVIVKTGADLRQETFACQLIYAFQRVWLECKEKVWVRRMKILVTGDNSGLIETITNAISVHSIKKNLTKQLREAELAQGKIAGKNVVTLKDYFIKQFGDPNSSRYRQAQTNFLQSLVAYSIISYLLQLKDRHNGNVLIDSEGHIIHIDFGFLLTNTPGNVGFESAPFKLTADYLEILDDRFDEYRSLMKAAFKSVRKNADQIILLVEVMQNNSTMPCFRAGENTSAQLLQRFQLQLGDKECDDFVDLLIQKANCSVWTRLYDLFQNITNGIY
chain 2: MSTDDSPYKQAFSLFDRHGTGRIPKTSIGDLLRACGQNPTLAEITEIESTLPAEVDMEQFLQVLNRPNGFDMPGDPEEFVKGFQVFDKDATGMIGVGELRYVLTSLGEKLSNEEMDELLKGVPVKDGMVNYHDFVQMILAN

Variants of: B1
Test: sandwich ELISA; about 56 µg lysate protein (highest point of 2-fold serial dilution); cells grown in the absence of thiamine; Cdc4-coated wells; parent: 0.27; read off a plot

| response [Absorbance] | Variant |
| --- | --- |
| ~0.027 | chain 1 R838A |
